T1: Myo5 SH3 (MYO5_YEAST), Q04439
T1 chain: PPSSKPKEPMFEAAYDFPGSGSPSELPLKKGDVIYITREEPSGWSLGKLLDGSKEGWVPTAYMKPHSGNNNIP


Biological target: T1, Myo5 SH3 (MYO5_YEAST), Q04439
Test: SPOT array

normalised SPOT signal, Boehringer light units (BLU); mean over the file's lines of this peptide	Binder
119	TLHELGVPITPIAF [YOR184W 245-258]
504	TLKKFVLPSLPRKN [YOR034C 339-352]
467	SPSTMDFPKLPSFQ [YPL089C 234-247]
143	SLDNFYNPLGPEDR [YNR012W 89-102]
4830	VAPGLWFPNSPPPL [YPL128C 101-114]
148	TPTHHHIPHIPNQN [YPR065W 331-344]
76.1	SPNDHSDPSSPSNR [YNR014W 177-190]
175	TPMDFPEPVGPLAI [YPL154C 366-379]
290	TEDGFVIPALPAAV [YPR190C 407-420]
7260	SLTSLPPPPPPQFS [YPL014W 217-230]
239	SLFPLKTPISPGTS [YOR106W 114-127]
227	TFSIYSIPSKPGES [YPL100W 474-487]
28.4	SLSALVGPVIPHTI [YMR177W 252-265]
127	TAWDMVPPYSPLSE [YPR090W 8-21]
505	SWLTMLPPMAPLLS [YMR158W-A 93-106]
357	SWRSLTKPKIPLYK [YMR287C 119-132]
180	VAGYFVIPHTPMPS [YOR378W 217-230]
156	TPSNMGSPGSPVNV [YOL148C 21-34]
131	SLQQFYNPESPIQP [YOR155C 390-403]
18	TLATLTEPKLPKSY [YOL111C 18-31]
152	SPFSLFIPTIPATT [YNL043C 79-92]
53.3	SPSTHAAPVTPIIS [YNL027W 321-334]
259	VAKSYGFPVPPKVN [YMR290C 473-486]
121	TEEILPTPVQPGGH [YOL070C 304-317]
25800	TPPPPPLPSVLSS [YNL271C 1302-1314]
168	SPLSWSGPLTPPTF [YNL243W 594-607]
315	TAAELQAPPPPPSS [YPL004C 14-27]

Further lines, the binder ahead of its results:

Binder	normalised SPOT signal, Boehringer light units (BLU); mean over the file's lines of this peptide
TLRSMIPPFTPQLD [YGR092W 484-497]	413
SPKKHVSPSRPPSV [YAL028W 272-285]	1430
SLISMETPEQPHQQ [YAL047C 546-559]	147
SPRHYNVPSSPIAP [YIL101C 572-585]	233
SPSDFNKPDLPELI [YER003C 229-242]	317
TPYQLLSPILPVLL [YBR136W 679-692]	287
SLAVYNIPLFPDDP [YLL002W 276-289]	91.7
SLVKFSSPMTPLLE [YHR072W 246-259]	249
TASQLQNPPPPPST [YGR086C 14-27]	168
SPSQYQYPSQPALS [YKL146W 143-156]	65.2
SPKKLASPRTPNAN [YKR077W 157-170]	276
TWKMHLWPVSPPQL [YLR039C 34-47]	224
TAPIHSTPKPPPND [YHR182W 732-745]	77.7
TFRDMDLPQHPVIH [YLR030W 45-58]	188
SPKPFSKPQEPVKA [YCR088W 389-402]	359
SPVNLLKPFNPTLP [YJL050W 730-743]	123

Binder	normalised SPOT signal, Boehringer light units (BLU); mean over the file's lines of this peptide
TLEWLLTPYTPGDD [YLR422W 982-995]	164
SPKFLNSPDLPERT [YDL225W 441-454]	183
SWAVLPVPGGPVMY [YJL195C 85-98]	69.2
TLFRFIVPFNPYFS [YLR198C 4-17]	882
VARPLSVPGSPRDL [YLR258W 646-659]	186
VAVPFTLPVIPYDL [YBR223C 517-530]	240
TEGKYAPPSQPSMA [YDL195W 822-835]	223
SPRSLPTPILPSMS [YML083C 47-60]	193
SPFTFLFPFLPTII [YER017C 223-236]	366
SLLIHSLPRKPLLM [YGL104C 357-370]	314
TLIEYMGPAPPKGS [YLR178C 145-158]	133
TPINFVFPNLPLEH [YHR007C 237-250]	81.8
SPVPLGSPRGPLPV [YLR163C 237-250]	135
TLPPLSSPMNPNGH [YDR096W 584-597]	252
TPTPHPHPHTPHPH [YHR217C 42-55]	158

From article PMC314469, “Protein Interaction Networks by Proteome Peptide Scanning” (PLoS Biology, 2004)
